Patent EP4473018A2 (dated 2024)

Assays:
[1] = molecular target: T1, rat B7-H3 antigen protein (Sino Biologicals; Cat. No. 80380-R02H-20) (rat, UniProt Q7TPB4 29-248); test: ELISA, antigen coated at 50 ng/well
T1 construct: Bought protein
T1 sequence (looked up): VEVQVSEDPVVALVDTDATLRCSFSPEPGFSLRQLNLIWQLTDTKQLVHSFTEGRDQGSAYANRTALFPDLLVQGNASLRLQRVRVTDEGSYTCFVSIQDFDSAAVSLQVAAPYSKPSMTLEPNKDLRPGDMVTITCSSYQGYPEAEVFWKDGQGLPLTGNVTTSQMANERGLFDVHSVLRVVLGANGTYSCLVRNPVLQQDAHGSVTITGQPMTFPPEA

[2] = molecular target: T2, Human B7-H3 protein (UniProt Q5ZPR3-1) on cells (human, UniProt Q5ZPR3 29-534); test: flow cytometry on human osteosarcoma U2OS cells
T2 construct: This is endogenous B7-H3 on U2OS, SK-N-BE(2), A375, A549 and Panc-1 cells, on monocyte-derived dendritic cells and in patient tumour tissue; also called CD276; surface antigen expressed by human cancer cells
T2 sequence: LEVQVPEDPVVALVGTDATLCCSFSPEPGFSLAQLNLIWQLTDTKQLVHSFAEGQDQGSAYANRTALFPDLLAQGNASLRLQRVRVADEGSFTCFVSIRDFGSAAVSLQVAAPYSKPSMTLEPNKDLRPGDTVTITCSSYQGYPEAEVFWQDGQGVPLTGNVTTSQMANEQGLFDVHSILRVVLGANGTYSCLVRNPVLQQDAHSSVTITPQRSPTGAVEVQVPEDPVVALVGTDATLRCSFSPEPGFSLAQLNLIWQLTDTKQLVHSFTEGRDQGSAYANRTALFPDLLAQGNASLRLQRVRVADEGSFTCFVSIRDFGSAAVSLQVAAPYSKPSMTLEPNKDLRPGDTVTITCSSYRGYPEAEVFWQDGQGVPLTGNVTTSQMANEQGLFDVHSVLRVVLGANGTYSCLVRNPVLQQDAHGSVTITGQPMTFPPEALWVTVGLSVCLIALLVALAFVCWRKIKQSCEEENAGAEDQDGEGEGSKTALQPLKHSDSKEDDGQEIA

[3] = molecular target: T3, Recombinant truncated human his-tag B7-H3 protein (amino acids 1-461 of SEQ ID NO:1 with a carboxy terminal … (human, UniProt Q5ZPR3 29-461)); test: SPR (Biacore T200), antibody captured by anti-human Fc, his-tagged B7-H3 as analyte from 100 nM, 1:1 model
T3 construct: also called his-tagged B7-H3 protein; recombinant human his-tagged B7-H3 protein
T3 sequence: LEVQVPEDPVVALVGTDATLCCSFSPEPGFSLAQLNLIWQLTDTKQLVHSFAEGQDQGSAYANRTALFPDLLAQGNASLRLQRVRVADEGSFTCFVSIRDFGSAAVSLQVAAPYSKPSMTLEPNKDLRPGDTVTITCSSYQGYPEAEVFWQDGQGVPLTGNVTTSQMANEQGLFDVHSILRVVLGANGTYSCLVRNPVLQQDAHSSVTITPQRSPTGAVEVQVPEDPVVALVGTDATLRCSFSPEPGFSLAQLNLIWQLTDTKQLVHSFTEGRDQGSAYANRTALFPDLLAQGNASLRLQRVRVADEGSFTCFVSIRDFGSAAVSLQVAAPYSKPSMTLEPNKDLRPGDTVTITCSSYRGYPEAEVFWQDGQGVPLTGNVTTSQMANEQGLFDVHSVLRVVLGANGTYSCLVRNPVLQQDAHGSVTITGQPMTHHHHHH

human B7-H6 = molecular target: T4, human B7-H6 (human, UniProt Q68D85 25-262); test: ELISA, antigen coated at 50 ng/well, antibody serially diluted
T4 construct: Bought protein; also called NCR3LG1
T4 sequence (looked up): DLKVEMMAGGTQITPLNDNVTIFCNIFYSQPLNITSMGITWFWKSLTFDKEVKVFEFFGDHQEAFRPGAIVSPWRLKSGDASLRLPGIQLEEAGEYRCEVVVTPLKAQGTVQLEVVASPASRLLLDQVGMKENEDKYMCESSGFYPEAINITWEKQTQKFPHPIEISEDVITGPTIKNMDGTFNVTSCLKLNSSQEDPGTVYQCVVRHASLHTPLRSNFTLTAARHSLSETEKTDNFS

human B7-H4 = molecular target: T5, human B7-H4 (human, UniProt Q7Z7D3 25-258, limits assumed); test: as above
T5 construct: Bought protein; also called B7S1; B7x
T5 sequence (looked up): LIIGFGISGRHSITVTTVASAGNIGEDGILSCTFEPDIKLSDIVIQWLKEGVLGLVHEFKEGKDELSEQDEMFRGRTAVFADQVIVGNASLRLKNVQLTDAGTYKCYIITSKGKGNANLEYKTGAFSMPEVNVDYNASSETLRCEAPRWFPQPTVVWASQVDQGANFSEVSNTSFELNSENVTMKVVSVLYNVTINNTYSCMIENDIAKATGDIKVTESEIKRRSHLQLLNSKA

human B7.1 = molecular target: T6, human B7.1 (human, UniProt P33681 35-242); test: as above
T6 construct: Bought protein; also called CD80
T6 sequence (looked up): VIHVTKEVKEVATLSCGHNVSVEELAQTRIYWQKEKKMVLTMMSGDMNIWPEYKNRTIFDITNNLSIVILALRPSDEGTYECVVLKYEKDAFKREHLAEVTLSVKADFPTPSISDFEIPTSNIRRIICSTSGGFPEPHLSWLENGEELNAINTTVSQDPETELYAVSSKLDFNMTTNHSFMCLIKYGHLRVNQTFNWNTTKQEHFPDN

human B7-H1 = molecular target: T7, human B7-H1 (human, UniProt Q9NZQ7 19-239); test: as above
T7 construct: Bought protein; also called PD-L1; CD274
T7 sequence (Q9NZQ7 19-239 limits assumed): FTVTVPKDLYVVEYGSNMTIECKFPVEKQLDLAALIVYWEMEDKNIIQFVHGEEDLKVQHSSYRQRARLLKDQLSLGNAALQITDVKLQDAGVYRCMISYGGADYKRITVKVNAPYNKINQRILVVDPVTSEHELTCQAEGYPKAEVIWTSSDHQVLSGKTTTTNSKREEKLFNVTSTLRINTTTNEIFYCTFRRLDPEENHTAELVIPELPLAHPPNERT

human B7-H7 = molecular target: T8, human B7-H7 (human, UniProt Q9UM44 23-344); test: as above
T8 construct: Bought protein; also called HHLA2
T8 sequence (looked up): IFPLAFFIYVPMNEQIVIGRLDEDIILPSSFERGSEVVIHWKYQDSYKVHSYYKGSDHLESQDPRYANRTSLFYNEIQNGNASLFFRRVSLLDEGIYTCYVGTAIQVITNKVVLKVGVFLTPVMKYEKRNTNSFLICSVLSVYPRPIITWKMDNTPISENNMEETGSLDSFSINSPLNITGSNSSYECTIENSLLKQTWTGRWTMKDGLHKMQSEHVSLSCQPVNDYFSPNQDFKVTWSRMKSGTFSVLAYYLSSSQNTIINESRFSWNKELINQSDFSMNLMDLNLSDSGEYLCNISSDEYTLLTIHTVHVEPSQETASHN

human B7-H2 = molecular target: T9, human B7-H2 (human, UniProt O75144 19-258, limits assumed); test: as above
T9 construct: Bought protein; also called ICOSL
T9 sequence (looked up): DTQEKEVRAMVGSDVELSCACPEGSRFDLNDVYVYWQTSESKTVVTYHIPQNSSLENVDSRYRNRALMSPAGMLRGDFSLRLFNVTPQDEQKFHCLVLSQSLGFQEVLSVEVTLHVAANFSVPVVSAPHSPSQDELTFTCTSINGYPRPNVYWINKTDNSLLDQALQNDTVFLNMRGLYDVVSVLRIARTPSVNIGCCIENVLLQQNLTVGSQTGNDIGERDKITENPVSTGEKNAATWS

human B7-H5 = molecular target: T10, human B7-H5 (human, UniProt Q9H7M9 33-194); test: as above
T10 construct: Bought protein; also called VISTA; GI24

human B7.2 = molecular target: T11, human B7.2 (human, UniProt P42081 24-247, limits assumed); test: as above
T11 construct: Bought protein; also called CD86
T11 sequence (looked up): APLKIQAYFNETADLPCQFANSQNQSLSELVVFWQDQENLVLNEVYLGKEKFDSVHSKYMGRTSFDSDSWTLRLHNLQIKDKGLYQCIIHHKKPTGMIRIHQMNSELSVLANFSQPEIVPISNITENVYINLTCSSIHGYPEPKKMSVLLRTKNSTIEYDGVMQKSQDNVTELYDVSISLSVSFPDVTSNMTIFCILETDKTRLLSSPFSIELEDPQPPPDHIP

[4] = molecular target: T3, Recombinant truncated human his-tag …; test: SPR (BIAcore 3000), antibody captured by anti-human Fc, his-tagged B7-H3 as analyte from 100 nM, 1:1 model

B1: Enoblituzumab (B7-H3 Macrogenics; MGA271; MG-B7-H3) (antibody, human IgG1, kappa, V domains shown)
VH: EVQLVESGGGLVQPGGSLRLSCAASGFTFSSFGMHWVRQAPGKGLEWVAYISSDSSAIYYADTVKGRFTISRDNAKNSLYLQMNSLRDEDTAVYYCGRGRENIYYGSRLDYWGQGTTVTVSS
VL: DIQLTQSPSFLSASVGDRVTITCKASQNVDTNVAWYQQKPGKAPKALIYSASYRYSGVPSRFSGSGSGTDFTLTISSLQPEDFATYYCQQYNNYPFTFGQGTKLEIKR
notes: also called B7-H3 MG; Macrogenics' B7-H3
Does B1 bind [1]?
Result: binds

Does B1 bind [2]?
Result: binds

Does B1 bind [3]?
Result: binds

B2: anti-B7-H3 antibody (VA clone) (antibody, V domains shown)
VH: QVQLVQSGAEVKKPGASVKVSCKASGYTFTDSYMHWVRQAPGQGLEWMGWISPRTGGTDYAQKFQGRVTMTRDTSISTAYMELSRLRSDDTAVYYCARGSSRGNDYWGQGTLVTVSS
VL: QSVLTQPASVSGSPGQSITISCTGTGSDVGGYNYVSWYQQHPGKAPKLIIYDVTKRPSGFSNRFSGSKSGNTASLTISGLQAEDEADYYCSSYTSRRTYVFGTGTKLTVL
notes: It was tested as a fully human IgG ('IgG protein', captured by anti-human Fc); also called B7-H3-VA; B7-H3 VA
Does B2 bind [1]?
Result: binds

Does B2 bind (human B7-H6)?
Result: no binding

Does B2 bind (human B7-H4)?
Result: no binding

Does B2 bind (human B7.1)?
Result: no binding

Does B2 bind (human B7-H1)?
Result: no binding

Does B2 bind (human B7-H7)?
Result: no binding

Does B2 bind (human B7-H2)?
Result: no binding

Does B2 bind (human B7-H5)?
Result: no binding

Does B2 bind (human B7.2)?
Result: no binding

B3: anti-B7-H3 antibody (VA LALA clone) (antibody, V domains shown)
VH: QVQLVQSGAEVKKPGASVKVSCKASGYTFTDSYMHWVRQAPGQGLEWMGWISPRTGGTDYAQKFQGRVTMTRDTSISTAYMELSRLRSDDTAVYYCARGSSRGNDYWGQGTLVTVSS
VL: QSVLTQPASVSGSPGQSITISCTGTGSDVGGYNYVSWYQQHPGKAPKLIIYDVTKRPSGFSNRFSGSKSGNTASLTISGLQAEDEADYYCSSYTSRRTYVFGTGTKLTVL
notes: also called B7-H3-VA LALA; B7-H3-VA-LALA
Does B3 bind (human B7-H6)?
Result: no binding

Does B3 bind (human B7-H4)?
Result: no binding

Does B3 bind (human B7.1)?
Result: no binding

Does B3 bind (human B7-H1)?
Result: no binding

Does B3 bind (human B7-H7)?
Result: no binding

Does B3 bind (human B7-H2)?
Result: no binding

Does B3 bind (human B7-H5)?
Result: no binding

Does B3 bind (human B7.2)?
Result: no binding

B4: B3-A6 (antibody, V domains shown)
VH: QVQLQQSGPGLVKPSQTLSLTCAISGDSVSSNSAAWNWIRQSPSRGLEWLGRTYYRSKWYNDYAVSVKSRITINPDTSKNQFSLQLNSVTPEDTAVYYCAREGIAVAALWDWGQGTLVTVSS
VL: QAVLTQPPSASGTPGQRVTISCSGSSSNIGSNYVSWYQQLPGTAPKLLMYSNNHRPSGVPDRFSGSKSGTSASLAISGLRTEDEADYYCAAWDDSLSGQVFGGGTKLTVL
notes: It was captured by anti-human Fc, so it was tested as an antibody with a human Fc
Does B4 bind [4]?
Result: binds

B5: B3-D1 (antibody, V domains shown)
VH: EVQLVQSGAELKKPGASVKVSCKASGHTFTSYYIHWVRQAPGQGLEWMGIINPSGDSTSYAQKFQGRVTMTRDTSTSTVYMELSSLTSEDTAVYYCARAIDYGGPYWYLDLWGRGTLVTVSS
VL: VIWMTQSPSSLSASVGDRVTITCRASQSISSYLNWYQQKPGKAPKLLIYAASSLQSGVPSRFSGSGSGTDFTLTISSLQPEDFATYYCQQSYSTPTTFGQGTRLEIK
notes: It was captured by anti-human Fc
Does B5 bind [4]?
Result: binds

B6: B3-2H1 (antibody, V domains shown)
VH: QVQLQQSGAEVEKPGASVEVSCRASGYTFTSYYIHWVRQAPGQGLEWVGMITPLSGGTTYAQKFQGRVTMTRDTSTSTVYMNLSSLRSEDTAVYFCARGGRAVASSFEFWGQGTLVTVSS
VL: QSVLTQPRSVSGSPGQSVTISCTGTSSDVGGYNYVSWYQQHPGKAPKLMIYDVSKRPSGVPDRFSGSKSGNTASLTISGLQAEDEADYYCCSYAGSYTEVFGTGTKVTVL
notes: as for B5
Does B6 bind [4]?
Result: binds

B7: B3-2E3 (antibody, V domains shown)
VH: QVQLVESGGGVVQPGRSLRLSCVASEFTFSSYTIHWVRQAPGKGLEWVAVISHDGSNKYYADSVKGRFTISRDNSKNTLYLQMSSLRAEDTAVYYCAGDRYVYNYYGMDVWGQGTTVTVSS
VL: DIVMTQSPSSLSAYVGDRVTITCRASQDIRTYLAWYQQKPGTAPKLLISGASILRSGVPSRFSGSGSGRDFTLSITSLQPEDFATYYCQQLYSYPPWTFGQGTKVEIK
notes: as for B5
Does B7 bind [4]?
Result: binds

B8: B3-4F7 (antibody, V domains shown)
VH: QVQLVQSGAEVKKPGASVKVSCKASGYTFTSYGISWVRQAPGQGLEWMGWISAYNGNTNYAQKLQGRVTMTTDTSTSTAYMELRSLRSDDTAVYYCARDGYYGSGSHPWGQGTLVTVSS
VL: QSVVTQPPSVSGAPGQRVTISCTGNSSNIGAGYDVHWYQQLPGTAPKLLIYGNSNRPSGIPDRFSGSKSGTSATLGITGLQTGDEADYYCGTWDSSLSAGVFGTGTKVTVL
notes: as for B5
Does B8 bind [4]?
Result: binds
